According to article PMC2120686:
Where “and” joins values, the source holds several entries; their conditions need not be identical. Equal entries are not always repeated.

Tests used:
[1] = molecular target: dansylated LMM (rabbit); experiment: fluorescence polarisation
[2] = molecular target: light meromyosin (LMM) (rabbit); experiment: electron microscopy
[3] = molecular target: K peptide (30-kD CNBr fragment of LMM) (rabbit); experiment: ELISA
[4] = molecular target: J peptide (15-kD CNBr fragment of LMM) (rabbit); experiment: ELISA
[5] = molecular target: light meromyosin (LMM) (rabbit); experiment: ELISA
[6] = molecular target: titin (rabbit); experiment: light scattering
[7] = molecular target: titin (rabbit); experiment: ELISA

titin (natural protein)
Kd [1]: 0.015 µM
molecular-binding constant [1]: 400 nM
percent of molecules closely associated [2]: 20%
fold lower affinity than the 15-kD peptide [3]: 100 fold
Kd [4]: 0.03 µM and 0.02 µM
Kd [5]: 0.012 µM

light meromyosin (LMM) (domain or fragment)
stoichiometry N [6]: 25 to 50

J peptide (15-kD CNBr fragment of LMM) (domain or fragment)
maximum inhibition of titin binding to LMM [7]: 60%
